The values below are quoted from earlier work in PMC9696485.

The target of the data set is integrin α6β4 (Homo sapiens) (UniProt P23229).
Sequence of UniProt P23229 (P23229 24-1130, chain 1 of 2): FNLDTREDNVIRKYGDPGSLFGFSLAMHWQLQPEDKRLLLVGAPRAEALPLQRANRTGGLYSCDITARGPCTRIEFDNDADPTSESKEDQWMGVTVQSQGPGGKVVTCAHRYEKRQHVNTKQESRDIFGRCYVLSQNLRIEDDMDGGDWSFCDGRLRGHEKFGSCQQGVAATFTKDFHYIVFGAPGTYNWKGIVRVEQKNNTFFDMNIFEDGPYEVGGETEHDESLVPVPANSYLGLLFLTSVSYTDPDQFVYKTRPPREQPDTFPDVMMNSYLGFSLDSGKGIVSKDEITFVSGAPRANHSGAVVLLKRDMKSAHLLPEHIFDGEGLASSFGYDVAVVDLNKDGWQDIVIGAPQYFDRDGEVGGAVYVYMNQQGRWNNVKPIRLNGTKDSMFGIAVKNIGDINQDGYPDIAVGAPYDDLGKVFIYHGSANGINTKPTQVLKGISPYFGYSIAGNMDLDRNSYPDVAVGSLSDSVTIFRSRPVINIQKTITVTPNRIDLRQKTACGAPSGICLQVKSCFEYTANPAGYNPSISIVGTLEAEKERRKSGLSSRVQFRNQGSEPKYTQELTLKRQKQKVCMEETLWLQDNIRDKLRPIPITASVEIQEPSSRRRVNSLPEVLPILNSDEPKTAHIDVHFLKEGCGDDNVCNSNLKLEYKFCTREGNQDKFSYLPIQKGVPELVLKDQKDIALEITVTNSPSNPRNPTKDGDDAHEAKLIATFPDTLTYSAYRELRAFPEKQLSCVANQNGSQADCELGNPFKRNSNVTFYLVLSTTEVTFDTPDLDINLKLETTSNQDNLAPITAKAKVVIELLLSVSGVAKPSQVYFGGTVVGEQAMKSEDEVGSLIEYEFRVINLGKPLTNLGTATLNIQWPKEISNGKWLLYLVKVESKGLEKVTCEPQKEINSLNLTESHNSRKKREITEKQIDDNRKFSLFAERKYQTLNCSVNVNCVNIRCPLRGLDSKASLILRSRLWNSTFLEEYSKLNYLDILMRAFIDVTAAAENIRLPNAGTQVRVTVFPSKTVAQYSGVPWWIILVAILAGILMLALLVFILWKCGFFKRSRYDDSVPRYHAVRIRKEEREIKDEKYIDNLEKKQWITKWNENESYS
Sequence of UniProt P23229 (P16144 28-1822, chain 2 of 2, further chain): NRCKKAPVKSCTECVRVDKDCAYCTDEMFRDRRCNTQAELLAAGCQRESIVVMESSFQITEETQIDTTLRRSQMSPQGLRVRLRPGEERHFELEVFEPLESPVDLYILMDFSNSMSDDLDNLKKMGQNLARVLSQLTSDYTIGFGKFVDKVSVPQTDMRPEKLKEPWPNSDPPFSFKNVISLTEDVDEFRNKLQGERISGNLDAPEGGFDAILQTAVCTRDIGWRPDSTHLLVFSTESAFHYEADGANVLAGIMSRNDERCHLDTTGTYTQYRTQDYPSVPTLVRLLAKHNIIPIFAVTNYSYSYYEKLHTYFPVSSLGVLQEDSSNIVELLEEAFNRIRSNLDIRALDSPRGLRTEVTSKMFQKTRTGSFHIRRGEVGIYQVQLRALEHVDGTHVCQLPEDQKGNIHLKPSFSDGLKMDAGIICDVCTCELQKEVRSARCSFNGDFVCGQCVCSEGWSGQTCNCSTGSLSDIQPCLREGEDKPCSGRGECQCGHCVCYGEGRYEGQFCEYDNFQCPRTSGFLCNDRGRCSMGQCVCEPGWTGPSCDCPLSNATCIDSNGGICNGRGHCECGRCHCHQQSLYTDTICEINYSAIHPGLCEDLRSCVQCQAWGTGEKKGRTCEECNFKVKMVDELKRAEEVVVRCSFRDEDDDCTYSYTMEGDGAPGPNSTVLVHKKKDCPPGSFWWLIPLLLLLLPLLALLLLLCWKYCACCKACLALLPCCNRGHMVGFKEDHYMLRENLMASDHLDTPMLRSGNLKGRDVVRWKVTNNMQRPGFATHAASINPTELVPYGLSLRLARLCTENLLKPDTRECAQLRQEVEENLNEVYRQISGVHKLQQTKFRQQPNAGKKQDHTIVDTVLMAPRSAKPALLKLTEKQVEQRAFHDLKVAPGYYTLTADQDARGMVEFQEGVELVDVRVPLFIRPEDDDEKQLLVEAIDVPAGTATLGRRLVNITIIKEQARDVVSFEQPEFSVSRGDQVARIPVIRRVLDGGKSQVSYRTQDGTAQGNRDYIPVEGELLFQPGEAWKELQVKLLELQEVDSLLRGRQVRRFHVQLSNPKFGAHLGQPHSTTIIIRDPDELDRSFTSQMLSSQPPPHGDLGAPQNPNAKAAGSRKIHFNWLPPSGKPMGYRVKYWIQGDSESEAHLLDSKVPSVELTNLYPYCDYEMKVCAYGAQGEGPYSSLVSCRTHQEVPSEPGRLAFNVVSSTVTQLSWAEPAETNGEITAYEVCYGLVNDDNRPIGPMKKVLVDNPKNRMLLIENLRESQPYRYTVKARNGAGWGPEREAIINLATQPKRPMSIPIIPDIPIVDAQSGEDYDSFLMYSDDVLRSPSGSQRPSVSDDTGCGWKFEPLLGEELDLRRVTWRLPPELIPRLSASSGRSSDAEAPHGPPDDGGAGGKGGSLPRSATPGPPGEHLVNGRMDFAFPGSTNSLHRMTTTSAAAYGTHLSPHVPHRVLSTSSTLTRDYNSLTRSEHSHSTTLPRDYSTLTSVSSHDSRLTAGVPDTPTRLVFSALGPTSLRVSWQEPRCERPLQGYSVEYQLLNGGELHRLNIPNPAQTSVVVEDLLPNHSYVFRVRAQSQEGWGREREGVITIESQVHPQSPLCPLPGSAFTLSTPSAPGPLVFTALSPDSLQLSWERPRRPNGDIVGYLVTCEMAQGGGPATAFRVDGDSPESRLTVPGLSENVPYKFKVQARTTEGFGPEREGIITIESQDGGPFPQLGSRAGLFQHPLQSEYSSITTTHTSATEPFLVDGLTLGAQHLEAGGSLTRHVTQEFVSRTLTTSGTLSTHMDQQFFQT

As for AG86 laminin peptide, the equilibrium dissociation constant (Kd) is 2500 nM.
